Earlier results in publication PMC7460888.

Biological target: SARS-CoV-2 spike RBD RBD (SARS-CoV-2) (UniProt P0DTC2)

In the case of SBP1 (ACE2 alpha1 helix peptide), the Kd is listed as 47 nM.
